These results are taken from patent US5541109.

B1: peptide pL17-2 (peptide)
peptide: APPAATPPPPRLFRPPA
modifications: also: covalently coupled to AminoLink agarose
B2: peptide pL35 (peptide)
peptide: TPAPPPLPPRNV
modifications: also: covalently coupled to AminoLink agarose
B3: pSV40, proline-rich peptide from SV40 T antigen (peptide)
peptide: KPPTPPPEPET
modifications: not fully specified
B4: peptide pL14-1 (peptide)
peptide: QSRPLPSPPKFT
modifications: not fully specified
B5: fuse5B 4.3-12 (12 mer) (peptide)
peptide: LARPLPVPPWRQ
modifications: not fully specified; printed as Leu Ala Arg Pro Leu Pro Val Pro Pro Trp Arg Gln
B6: fuse5B 4.3-15 (15 mer) (peptide)
peptide: LALARPLPVPPWRQI
modifications: not fully specified
B7: peptide pL14-1-7-mer (peptide)
peptide: RPLPSPP
modifications: not fully specified
B8: fuse5B 4.3-7 (7 mer) (peptide)
peptide: RPLPVPP
modifications: not fully specified

Ends that are not written are not given here.

The target of the first assay is radiolabeled GST/PKA/rasGAP SH3 (Schistosoma japonicum (Blood fluke)) [GST: P08515]. Briefly: peptide on AminoLink agarose, 32P-labelled fusion, counting.
For B1, the percent of CPM bound to beads/CPM applied to beads turned out to be 10%.

In the next assay the target is ^32 P-labeled GST/PKA/Src SH3 fusion protein (PKA site phosphorylated) (Schistosoma japonicum (Blood fluke)) [GST: P08515]. The description is as above.
For the molecule B2, the percent of CPM bound to beads/CPM applied to beads was determined as 90%. Same read-out and setting: under B3 stands less than 1%; under B4, 70%.

For a further assay, the target named is ^32 P-labeled GST/PKA fusion protein (Schistosoma japonicum (Blood fluke)) [GST: P08515]. Briefly: peptide on AminoLink resin, precipitation of 32P-labelled control fusion, counting.
Take B5: the fold lower binding than GST/PKA/Src SH3 was found to be 100 fold. For B6, the fold lower binding than GST/PKA/Src SH3 was determined as 100 fold. On to B7, for which the fold lower binding than GST/PKA/Src SH3 was 100 fold. In the case of B4, the fold lower binding than GST/PKA/Src SH3 is 100 fold. Take B8: the fold lower binding than GST/PKA/Src SH3 amounted to 100 fold.
